Results published in PMC12562432, “G4 Oligonucleotide-Based Chaperones of Heterogeneous Nuclear Ribonucleoprotein A1”.

Target: hnRNP A1 (UniProt P09651 1-251+304-372, internal_change)
Assay: MST; 150 mM KCl; MST: 100 nM RED-labelled hnRNP A1, oligonucleotide titrated, 10 min incubation, working buffer with 150 mM KCl (40 mM HEPES-KOH pH 7.0 stated for the other assays); Hill model; temperature not stated
Settings: tags: RED dye label (MST); parallel G4 loop on short duplex stem GCUGC/GCAGC, 5' single-stranded UCAGUU

Chain of hnRNP A1 (P09651 other isoform, or with tags, fused parts or gaps): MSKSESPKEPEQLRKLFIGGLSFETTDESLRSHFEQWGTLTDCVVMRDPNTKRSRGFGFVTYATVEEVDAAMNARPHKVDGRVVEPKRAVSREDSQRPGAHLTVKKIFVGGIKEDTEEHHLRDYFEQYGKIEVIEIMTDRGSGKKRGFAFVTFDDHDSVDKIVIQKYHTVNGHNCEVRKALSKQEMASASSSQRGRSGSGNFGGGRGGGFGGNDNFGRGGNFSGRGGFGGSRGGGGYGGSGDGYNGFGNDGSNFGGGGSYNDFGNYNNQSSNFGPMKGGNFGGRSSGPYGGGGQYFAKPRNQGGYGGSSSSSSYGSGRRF

Binder UCAGUUGCUGCGGGUGGGUGGGUGGGGCAGC (structured_RNA) [chap-RNA] has a Kd of 6 ± 1 µM.
